# ± gives the uncertainty stated by the source.
# B1: Transcriptional repressor p66-beta, residues 415 to 455; numbered along this chain, Q8WXI9 (parent)
# chain: VEPFVCAQCRTDFTPHWKQEKNGKILCEQCMTSNQKKALKA
# Variants of: B1
# Experiment: abundance fitness (aPCA) (normalised: wild type 0, dead -1); higher = more abundant; growth selection in yeast, the domain comes from the species named
# Details: Homo sapiens
row,Variant,abundance fitness
1,Q35D,-0.103 ± 0.1
2,Q35Y,0.116 ± 0.43
3,Q35T,0.018 ± 0.24
4,Q35A,-0.117 ± 0.063
5,Q35P,-0.223 ± 0.12
6,Q35R,-0.197 ± 0.067
7,Q35E,0.025 ± 0.08
8,Q35I,-0.378 ± 0.16
9,T32W,-0.453 ± 0.08
10,T32L,-0.312 ± 0.093
11,T32R,-0.145 ± 0.062
12,T32P,-0.056 ± 0.14
13,T32E,-0.186 ± 0.092
14,T32V,-0.127 ± 0.06
15,T32I,-0.033 ± 0.13
16,T32K,0.045 ± 0.26
17,T32G,-0.121 ± 0.065
18,T32M,-0.145 ± 0.087
19,T32S,-0.312 ± 0.13
20,T32Q,-0.173 ± 0.092
21,T32C,-0.177 ± 0.17
22,T32F,-0.143 ± 0.25
23,T32A,-0.047 ± 0.061
24,A38E,0.167 ± 0.083
25,A38P,-0.509 ± 0.47

row,Variant,abundance fitness
1,A38Q,-0.541 ± 0.44
2,A38H,-0.32 ± 0.36
3,A38L,-0.053 ± 0.094
4,A38D,0.046 ± 0.13
5,A38G,-0.213 ± 0.057
6,A38T,0.687 ± 0.36
7,A38S,0.066 ± 0.12
8,A38K,0.059 ± 0.096
9,A38W,-0.398 ± 0.12
10,A38R,-0.19 ± 0.064
11,A38M,-0.181 ± 0.13
12,A38V,-0.04 ± 0.073
13,A38Y,-0.228 ± 0.21
14,K40L,-0.467 ± 0.12
15,K40A,-0.025 ± 0.071
16,K40N,0.079 ± 0.19
17,K40S,-0.073 ± 0.11
18,K40M,-0.066 ± 0.18
19,K40V,-0.121 ± 0.069
20,K40P,0.229 ± 0.24
21,K40E,0.084 ± 0.089
22,K40W,-0.393 ± 0.11
23,K40T,0.071 ± 0.08
24,K40Q,-0.218 ± 0.23
25,K40G,0.06 ± 0.064

row,Variant,abundance fitness
1,K40H,-0.125 ± 0.25
2,K40R,0.285 ± 0.065
3,K40C,-0.144 ± 0.15
4,G23H,0.385 ± 0.27
5,G23N,0.303 ± 0.18
6,G23E,0.189 ± 0.083
7,G23M,0.422 ± 0.21
8,G23R,0.003 ± 0.067
9,G23S,-0.104 ± 0.14
10,G23W,-0.392 ± 0.14
11,G23D,0.343 ± 0.12
12,G23Q,0.335 ± 0.22
13,G23V,0.092 ± 0.062
14,G23P,-0.016 ± 0.16
15,G23C,-0.137 ± 0.18
16,G23L,0.142 ± 0.14
17,G23T,0.045 ± 0.15
18,K37E,0.142 ± 0.066
19,K37L,-0.036 ± 0.08
20,K37G,-0.015 ± 0.056
21,K37D,-0.191 ± 0.21
22,K37Q,0.168 ± 0.079
23,K37N,-0.226 ± 0.19
24,K37Y,-0.116 ± 0.2
25,K37R,-0.074 ± 0.064

row,Variant,abundance fitness
1,K37I,-0.092 ± 0.24
2,K37V,-0.035 ± 0.076
3,K37S,-0.056 ± 0.093
4,K37A,0.018 ± 0.067
5,K37T,-0.027 ± 0.11
6,K37M,0.095 ± 0.13
7,K37C,-0.309 ± 0.14
8,K37H,-0.176 ± 0.23
9,K37P,0.1 ± 0.088
10,I25D,0.714 ± 0.27
11,I25K,-0.026 ± 0.095
12,I25A,-0.306 ± 0.07
13,I25Y,-0.307 ± 0.23
14,I25R,-0.168 ± 0.07
15,I25F,-0.132 ± 0.14
16,I25L,-0.158 ± 0.083
17,I25M,-0.081 ± 0.076
18,I25V,-0.407 ± 0.089
19,I25T,-0.054 ± 0.086
20,I25C,-0.192 ± 0.12
21,I25P,0.069 ± 0.096
22,I25E,-0.118 ± 0.11
23,I25Q,-0.029 ± 0.15
24,I25W,-0.287 ± 0.1
25,I25S,-0.246 ± 0.12

row,Variant,abundance fitness
1,S33F,-0.919 ± 0.46
2,S33Q,-0.017 ± 0.077
3,S33Y,0.28 ± 0.2
4,S33E,-0.007 ± 0.086
5,S33T,-0.01 ± 0.087
6,S33L,-0.176 ± 0.089
7,S33K,-0.222 ± 0.2
8,S33H,0.121 ± 0.49
9,S33V,-0.104 ± 0.092
10,S33R,-0.122 ± 0.072
11,S33D,0.002 ± 0.24
12,S33W,-0.379 ± 0.14
13,S33P,-0.011 ± 0.17
14,S33M,0.048 ± 0.088
15,S33C,-0.113 ± 0.2
16,S33A,-0.04 ± 0.072
17,C30A,-0.488 ± 0.13
18,C30E,-1.11 ± 0.2
19,C30L,-0.786 ± 0.11
20,C30D,-0.315 ± 0.19
21,C30V,-0.664 ± 0.13
22,C30H,-0.672 ± 0.28
23,C30K,-0.635 ± 0.18
24,C30W,-1.07 ± 0.13
25,C30Q,-0.795 ± 0.29

row,Variant,abundance fitness
1,C30R,-0.84 ± 0.12
2,A41V,0.153 ± 0.18
3,A41L,0.211 ± 0.14
4,A41K,-0.091 ± 0.43
5,A41G,0.01 ± 0.075
6,A41W,0.002 ± 0.49
7,A41C,-0.215 ± 0.2
8,A41R,-0.071 ± 0.079
9,A41M,-0.247 ± 0.2
10,A41S,0.004 ± 0.23
11,A41E,-0.02 ± 0.27
12,C27M,-1.31 ± 0.42
13,C27D,-0.504 ± 0.3
14,C27L,-1.32 ± 0.27
15,C27A,-1.01 ± 0.18
16,C27Q,-0.79 ± 0.29
17,C27W,-1.02 ± 0.18
18,C27S,-0.739 ± 0.13
19,C27R,-1.06 ± 0.17
20,C27Y,-0.444 ± 0.43
21,C27G,-1.05 ± 0.21
22,C27T,-1.38 ± 0.32
23,C27E,-0.319 ± 0.27
24,C27V,-1.11 ± 0.23
25,C27H,0.039 ± 0.18
